In the supplement of paper PMC5998384:

Experiments:
HeLa Kyoto [1] = experiment: thermal stability score vs G1/S (z-score of summed log2 fold changes over temperatures); higher = more thermally stable than in G1/S
HeLa Kyoto [2] = experiment: melting temperature (median over replicates), in situ; higher = more thermally stable
HeLa Kyoto [3] = experiment: solubility change mitosis vs G1/S (difference of NP-40 vs SDS log2 ratios) (log2 ratio difference); higher = more soluble in mitosis
HeLa Kyoto [4] = experiment: solubility in G1/S (NP-40 vs SDS abundance) (log2 ratio); higher = more soluble; settings: cell cycle stage: G1/S
[5] = cell cycle stage: early G1 (4.5 h after nocodazole release)
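Wherever melting temperature (median over replicates), in situ is given: HeLa Kyoto cells synchronized by double thymidine or nocodazole block, proteins quantified by TMT10plex mass spectrometry, three independent biological replicates.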
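Wherever solubility change mitosis vs G1/S (difference of NP-40 vs SDS log2 ratios) is given: synchronized HeLa Kyoto cells (double thymidine block for G1/S, nocodazole release for mitosis), protein amounts in NP-40 versus SDS lysates quantified by mass spectrometry, three biological replicates.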
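Wherever solubility in G1/S (NP-40 vs SDS abundance) is given: HeLa Kyoto cells arrested at G1/S by double thymidine block, proteins quantified by TMT10plex mass spectrometry in mild NP-40 versus SDS extracts, three biological replicates.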
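Wherever thermal stability score vs G1/S (z-score of summed log2 fold changes over temperatures) is given: synchronized HeLa Kyoto cells, proteins quantified by TMT10plex mass spectrometry, three biological replicates, mitosis taken 0.5 h after nocodazole release, G1/S directly after double thymidine block.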

| Sequence | thermal stability score (HeLa Kyoto [1]; [5]) | thermal stability score (HeLa Kyoto [1]; cell cycle stage: mitosis) | melting temperature (HeLa Kyoto [2]; cell cycle stage: G1/S) [°C] | melting temperature (HeLa Kyoto [2]; cell cycle stage: mitosis) [°C] | solubility change mitosis (log2) (HeLa Kyoto [3]) | solubility in G1/S (log2) (HeLa Kyoto [4]) |
| --- | --- | --- | --- | --- | --- | --- |
| MGCIKSKGKDSLSDDGVDLKTQPVRNTERTIYVRDPTSNKQQRPVPESQLLPGQRFQTKDPEEQGDIVVALYPYDGIHPDDLSFKKGEKMKVLEEHGEWWKAKSLLTKKEGFIPSNYVAKLNTLETEEWFFKDITRKDAERQLLAPGNSAGAFLIRESETLKGSFSLSVRDFDPVHGDVIKHYKIRSLDNGGYYISPRITFPCISDMIKHYQKQADGLCRRLEKACISPKPQKPWDKDAWEIPRESIKLVKRLGAGQFGEVWMGYYNNSTKVAVKTLKPGTMSVQAFLEEANLMKTLQHDKLVRLYAVVTREEPIYIITEYMAKGSLLDFLKSDEGGKVLLPKLIDFSAQIAEGMAYIERKNYIHRDLRAANVLVSESLMCKIADFGLARVIEDNEYTAREGAKFPIKWTAPEAINFGCFTIKSDVWSFGILLYEIVTYGKIPYPGRTNADVMTALSQGYRMPRVENCPDELYDIMKMCWKEKAEERPTFDYLQSVLDDFYTATEGQYQQQP [LYN] | 1.11 | 0.805 | 51.1 | 50.7 | -0.0796 | -0.416 |
| MGDAADPREMRKTFIVPAIKPFDHYDFSRAKIACNLAWLVAKAFGTENVPEELQEPFYTDQYDQEHIKPPVVNLLLSAELYCRAGSLILKSDAAKPLLGHDAVIQALAQKGLYVTDQEKLVTERDLHKKPIQMSAHLAMIDTLMMAYTVEMVSIEKVIACAQQYSAFFQATDLPYDIEDAVMYWINKVNEHLKDIMEQEQKLKEHHTVEAPGGQKSPSKWFWKLVPARYRKEQTLLKQLPCIPLVENLLKDGTDGCALAALIHFYCPDVVRLEDICLKETMSLADSLYNLQLIQEFCQEYLNQCCHFTLEDMLYAASSIKSNYLVFMAELFWWFEVVKPSFVQPRVVRPQGAEPVKDMPSIPVLNAAKRNVLDSSSDFPSSGEGATFTQSHHHLPSRYSRPQAHSSASGGIRRSSSMSYVDGFIGTWPKEKRSSVHGVSFDISFDKEDSVQRSTPNRGITRSISNEGLTLNNSHVSKHIRKNLSFKPINGEEEAESIEEELNIDSHSDLKSCVPLNTNELNSNENIHYKLPNGALQNRILLDEFGNQIETPSIEEALQIIHDTEKSPHTPQPDQIANGFFLHSQEMSILNSNIKLNQSSPDNVTDTKGALSPITDNTEVDTGIHVPSEDIPETMDEDSSLRDYTVSLDSDMDDASKFLQDYDIRTGNTREALSPCPSTVSTKSQPGSSASSSSGVKMTSFAEQKFRKLNHTDGKSSGSSSQKTTPEGSELNIPHVVAWAQIPEETGLPQGRDTTQLLASEMVHLRMKLEEKRRAIEAQKKKMEAAFTKQRQKMGRTAFLTVVKKKGDGISPLREEAAGAEDEKVYTDRAKEKESQKTDGQRSKSLADIKESMENPQAKWLKSPTTPIDPEKQWNLASPSEETLNEGEILEYTKSIEKLNSSLHFLQQEMQRLSLQQEMLMQMREQQSWVISPPQPSPQKQIRDFKPSKQAGLSSAIAPFSSDSPRPTHPSPQSSNRKSASFSVKSQRTPRPNELKITPLNRTLTPPRSVDSLPRLRRFSPSQVPIQTRSFVCFGDDGEPQLKESKPKEEVKKEELESKGTLEQRGHNPEEKEIKPFESTVSEVLSLPVTETVCLTPNEDQLNQPTEPPPKPVFPPTAPKNVNLIEVSLSDLKPPEKADVPVEKYDGESDKEQFDDDQKVCCGFFFKDDQKAENDMAMKRAALLEKRLRREKETQLRKQQLEAEMEHKKEETRRKTEEERQKKEDERARREFIRQEYMRRKQLKLMEDMDTVIKPRPQVVKQKKQRPKSIHRDHIESPKTPIKGPPVSSLSLASLNTGDNESVHSGKRTPRSESVEGFLSPSRCGSRNGEKDWENASTTSSVASGTEYTGPKLYKEPSAKSNKHIIQNALAHCCLAGKVNEGQKKKILEEMEKSDANNFLILFRDSGCQFRSLYTYCPETEEINKLTGIGPKSITKKMIEGLYKYNSDRKQFSHIPAKTLSASVDAITIHSHLWQTKRPVTPKKLLPTKA [CAMSAP2] | 1.04 | 2.88 | 51.7 | 53 | -0.0823 | 0.00851 |
| MGDMANNSVAYSGVKNSLKEANHDGDFGITLAELRALMELRSTDALRKIQESYGDVYGICTKLKTSPNEGLSGNPADLERREAVFGKNFIPPKKPKTFLQLVWEALQDVTLIILEIAAIVSLGLSFYQPPEGDNALCGEVSVGEEEGEGETGWIEGAAILLSVVCVVLVTAFNDWSKEKQFRGLQSRIEQEQKFTVIRGGQVIQIPVADITVGDIAQVKYGDLLPADGILIQGNDLKIDESSLTGESDHVKKSLDKDPLLLSGTHVMEGSGRMVVTAVGVNSQTGIIFTLLGAGGEEEEKKDEKKKEKKNKKQDGAIENRNKAKAQDGAAMEMQPLKSEEGGDGDEKDKKKANLPKKEKSVLQGKLTKLAVQIGKAGLLMSAITVIILVLYFVIDTFWVQKRPWLAECTPIYIQYFVKFFIIGVTVLVVAVPEGLPLAVTISLAYSVKKMMKDNNLVRHLDACETMGNATAICSDKTGTLTMNRMTVVQAYINEKHYKKVPEPEAIPPNILSYLVTGISVNCAYTSKILPPEKEGGLPRHVGNKTECALLGLLLDLKRDYQDVRNEIPEEALYKVYTFNSVRKSMSTVLKNSDGSYRIFSKGASEIILKKCFKILSANGEAKVFRPRDRDDIVKTVIEPMASEGLRTICLAFRDFPAGEPEPEWDNENDIVTGLTCIAVVGIEDPVRPEVPDAIKKCQRAGITVRMVTGDNINTARAIATKCGILHPGEDFLCLEGKDFNRRIRNEKGEIEQERIDKIWPKLRVLARSSPTDKHTLVKGIIDSTVSDQRQVVAVTGDGTNDGPALKKADVGFAMGIAGTDVAKEASDIILTDDNFTSIVKAVMWGRNVYDSISKFLQFQLTVNVVAVIVAFTGACITQDSPLKAVQMLWVNLIMDTLASLALATEPPTESLLLRKPYGRNKPLISRTMMKNILGHAFYQLVVVFTLLFAGEKFFDIDSGRNAPLHAPPSEHYTIVFNTFVLMQLFNEINARKIHGERNVFEGIFNNAIFCTIVLGTFVVQIIIVQFGGKPFSCSELSIEQWLWSIFLGMGTLLWGQLISTIPTSRLKFLKEAGHGTQKEEIPEEELAEDVEEIDHAERELRRGQILWFRGLNRIQTQIRVVNAFRSSLYEGLEKPESRSSIHNFMTHPEFRIEDSEPHIPLIDDTDAEDDAPTKRNSSPPPSPNKNNNAVDSGIHLTIEMNKSATSSSPGSPLHSLETSL [ATP2B1] | 0.336 | 1.72 | 54.1 | 53.4 | -0.103 | -0.179 |
| MGDMKTPDFDDLLAAFDIPDIDANEAIHSGPEENEGPGGPGKPEPGVGSESEDTAAASAGDGPGVPAQASDHGLPPPDISVVSVIVKNTVCPEQSEALAGGSAGDGAQAAGVTKEGPVGPHRMQNGFGSPEPSLPGTPHSPAPPSGGTWKEKGMEGKTPLDLFAHFGPEPGDHSDPLPPSAPSPTREGALTPPPFPSSFELAQENGPGMQPPVSSPPLGALKQESCSPHHPQVLAQQGSGSSPKATDIPASASPPPVAGVPFFKQSPGHQSPLASPKVPVCQPLKEEDDDEGPVDKSSPGSPQSPSSGAEAADEDSNDSPASSSSRPLKVRIKTIKTSCGNITRTVTQVPSDPDPPAPLAEGAFLAEASLLKLSPATPTSEGPKVVSVQLGDGTRLKGTVLPVATIQNASTAMLMAASVARKAVVLPGGTATSPKMIAKNVLGLVPQALPKADGRAGLGTGGQKVNGASVVMVQPSKTATGPSTGGGTVISRTQSSLVEAFNKILNSKNLLPAYRPNLSPPAEAGLALPPTGYRCLECGDAFSLEKSLARHYDRRSMRIEVTCNHCARRLVFFNKCSLLLHAREHKDKGLVMQCSHLVMRPVALDQMVGQPDITPLLPVAVPPVSGPLALPALGKGEGAITSSAITTVAAEAPVLPLSTEPPAAPATSAYTCFRCLECKEQCRDKAGMAAHFQQLGPPAPGATSNVCPTCPMMLPNRCSFSAHQRMHKNRPPHVCPECGGNFLQANFQTHLREACLHVSRRVGYRCPSCSVVFGGVNSIKSHIQTSHCEVFHKCPICPMAFKSGPSAHAHLYSQHPSFQTQQAKLIYKCAMCDTVFTHKPLLSSHFDQHLLPQRVSVFKCPSCPLLFAQKRTMLEHLKNTHQSGRLEETAGKGAGGALLTPKTEPEELAVSQGGAAPATEESSSSSEEEEVPSSPEPPRPAKRPRRELGSKGLKGGGGGPGGWTCGLCHSWFPERDEYVAHMKKEHGKSVKKFPCRLCERSFCSAPSLRRHVRVNHEGIKRVYPCRYCTEGKRTFSSRLILEKHVQVRHGLQLGAQSPGRGTTLARGSSARAQGPGRKRRQSSDSCSEEPDSTTPPAKSPRGGPGSGGHGPLRYRSSSSTEQSLMMGLRVEDGAQQCLDCGLCFASPGSLSRHRFISHKKRRGVGKASALGLGDGEEEAPPSRSDPDGGDSPLPASGGPLTCKVCGKSCDSPLNLKTHFRTHGMAFIRARQGAVGDN [ZNF687] | 0.612 | 1.77 | 49 | 50.3 | 0.08 | -0.224 |
| MGDPERPEAAGLDQDERSSSDTNESEIKSNEEPLLRKSSRRFVIFPIQYPDIWKMYKQAQASFWTAEEVDLSKDLPHWNKLKADEKYFISHILAFFAASDGIVNENLVERFSQEVQVPEARCFYGFQILIENVHSEMYSLLIDTYIRDPKKREFLFNAIETMPYVKKKADWALRWIADRKSTFGERVVAFAAVEGVFFSGSFAAIFWLKKRGLMPGLTFSNELISRDEGLHCDFACLMFQYLVNKPSEERVREIIVDAVKIEQEFLTEALPVGLIGMNCILMKQYIEFVADRLLVELGFSKVFQAENPFDFMENISLEGKTNFFEKRVSEYQRFAVMAETTDNVFTLDADF [RRM2B] | -1.2 | 0.292 | 56.5 | 54.2 | -0.132 | 0.00384 |
| MGDPSKQDILTIFKRLRSVPTNKVCFDCGAKNPSWASITYGVFLCIDCSGSHRSLGVHLSFIRSTELDSNWSWFQLRCMQVGGNASASSFFHQHGCSTNDTNAKYNSRAAQLYREKIKSLASQATRKHGTDLWLDSCVVPPLSPPPKEEDFFASHVSPEVSDTAWASAIAEPSSLTSRPVETTLENNEGGQEQGPSVEGLNVPTKATLEVSSIIKKKPNQAKKGLGAKKGSLGAQKLANTCFNEIEKQAQAADKMKEQEDLAKVVSKEESIVSSLRLAYKDLEIQMKKDEKMNISGKKNVDSDRLGMGFGNCRSVISHSVTSDMQTIEQESPIMAKPRKKYNDDSDDSYFTSSSSYFDEPVELRSSSFSSWDDSSDSYWKKETSKDTETVLKTTGYSDRPTARRKPDYEPVENTDEAQKKFGNVKAISSDMYFGRQSQADYETRARLERLSASSSISSADLFEEPRKQPAGNYSLSSVLPNAPDMAQFKQGVRSVAGKLSVFANGVVTSIQDRYGS [ARFGAP3] | -0.314 | 0.332 | 51.3 | 51.4 | -0.125 | 0.135 |
| MGDVLSTHLDDARRQHIAEKTGKILTEFLQFYEDQYGVALFNSMRHEIEGTGLPQAQLLWRKVPLDERIVFSGNLFQHQEDSKKWRNRFSLVPHNYGLVLYENKAAYERQVPPRAVINSAGYKILTSVDQYLELIGNSLPGTTAKSGSAPILKCPTQFPLILWHPYARHYYFCMMTEAEQDKWQAVLQDCIRHCNNGIPEDSKVEGPAFTDAIRMYRQSKELYGTWEMLCGNEVQILSNLVMEELGPELKAELGPRLKGKPQERQRQWIQISDAVYHMVYEQAKARFEEVLSKVQQVQPAMQAVIRTDMDQIITSKEHLASKIRAFILPKAEVCVRNHVQPYIPSILEALMVPTSQGFTEVRDVFFKEVTDMNLNVINEGGIDKLGEYMEKLSRLAYHPLKMQSCYEKMESLRLDGLQQRFDVSSTSVFKQRAQIHMREQMDNAVYTFETLLHQELGKGPTKEELCKSIQRVLERVLKKYDYDSSSVRKRFFREALLQISIPFLLKKLAPTCKSELPRFQELIFEDFARFILVENTYEEVVLQTVMKDILQAVKEAAVQRKHNLYRDSMVMHNSDPNLHLLAEGAPIDWGEEYSNSGGGGSPSPSTPESATLSEKRRRAKQVVSVVQDEEVGLPFEASPESPPPASPDGVTEIRGLLAQGLRPESPPPAGPLLNGAPAGESPQPKAAPEASSPPASPLQHLLPGKAVDLGPPKPSDQETGEQVSSPSSHPALHTTTEDSAGVQTEF [FAM129B] | -0.711 | 2.24 | 51.6 | 51.2 | -0.0461 | 0.283 |
